Target: T1, AcTPase4xOs (enhanced, rice codon-optimized Ac transposase with SV40 NLS) (Zea mays (engineered)) (UniProt P08770)
T1 sequence (P08770 whole entry, looked up): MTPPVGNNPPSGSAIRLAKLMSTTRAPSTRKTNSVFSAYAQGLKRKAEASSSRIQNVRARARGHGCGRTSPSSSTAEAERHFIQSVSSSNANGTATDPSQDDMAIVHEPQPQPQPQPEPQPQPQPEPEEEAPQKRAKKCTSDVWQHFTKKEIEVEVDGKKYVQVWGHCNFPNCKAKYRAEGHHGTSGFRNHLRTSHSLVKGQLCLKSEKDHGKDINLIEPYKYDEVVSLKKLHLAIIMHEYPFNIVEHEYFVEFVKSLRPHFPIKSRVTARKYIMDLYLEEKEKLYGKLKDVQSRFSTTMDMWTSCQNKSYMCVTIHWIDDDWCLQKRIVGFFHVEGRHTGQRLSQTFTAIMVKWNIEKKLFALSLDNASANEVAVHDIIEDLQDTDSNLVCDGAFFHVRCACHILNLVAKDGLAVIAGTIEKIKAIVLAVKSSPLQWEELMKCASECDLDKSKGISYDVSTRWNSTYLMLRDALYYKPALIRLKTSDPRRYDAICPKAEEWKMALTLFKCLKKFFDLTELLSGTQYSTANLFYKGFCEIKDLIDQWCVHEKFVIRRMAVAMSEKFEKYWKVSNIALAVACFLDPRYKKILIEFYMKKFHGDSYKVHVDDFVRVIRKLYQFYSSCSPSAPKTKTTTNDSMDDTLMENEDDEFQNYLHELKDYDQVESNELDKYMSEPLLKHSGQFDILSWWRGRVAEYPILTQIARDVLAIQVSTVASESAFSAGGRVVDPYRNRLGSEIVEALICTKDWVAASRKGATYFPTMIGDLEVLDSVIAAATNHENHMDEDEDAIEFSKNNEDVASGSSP
Test: cell_activity
Details: pZEN31E in rice callus, heat shock 42 C 90 min; 81.1% without heat shock; 0% for pZEN30NC lacking transposase

CAGGGATGAAAGTAGGATGGGAAAATCCCGTACCGACCGTTATCGTATAACCGATTTTGTTAGTTTTATCCCGATCGATTTCGAACCCGAGGTAAAAAACGAAAACGGAACGGAAACGGGATATACAAAACGGTAAACGGAAACGGAAACGGTAGAGCTAGTTTCCCGACCGTTTCACCGGGATCCCGTTTTTAATCGGGATGATCCCGTTTCGTTACCGTATTTTCTAATTCGGGATGACTGCAATATGGCCAGCTCCAACTCCCATCCATAACCACTGAGGCCCAGCCCATGTAAGAATGCTCCAGATTTATATGGATTTTATCTATGTTTAATTAAGACTTGTGTTTACAATTTTTTATATTTGTTTTTAAGTTTTGAATATATGTTTTCATGTGTGATTTTACCGAACAAAAATACCGGTTCCCGTCCGATTTCGACTTTAACCCGACCGGATCGTATCGGTTTTCGATTACCGTATTTATCCCGTTCGTTTTCGTTACCGGTATATCCCGTTTTCGTTTCCGTCCCGCAAGTTAAATATGAAAATGAAAACGGTAGAGGTATTTTACCGACCGTTACCGACCGTTTTCATCCCTA (double strand)
activity (% callus lines with excision): 95.1

Source: patent publication US20220119828
